Laboratory results published in patent publication US20200291118A1.
Where two headings read alike, the source gives them in different places.

Target: hPD-1-hIgGFc antigen (human), Q15116
Assay: ELISA on coated hPD-1-hIgGFc, ligand PD-L2-his tag 0.3 µg/ml detected; no antibody (row 'blank' under HX009-5)

Chain of hPD-1-hIgGFc antigen (human), Q15116 (Q15116 25-167 limits assumed): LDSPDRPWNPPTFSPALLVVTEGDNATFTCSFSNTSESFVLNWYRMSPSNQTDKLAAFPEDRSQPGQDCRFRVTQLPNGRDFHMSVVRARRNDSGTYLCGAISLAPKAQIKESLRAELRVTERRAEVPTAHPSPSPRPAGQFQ

absorbance at 450 nm: 1.1 | absorbance at 450 nm (remark: other sources report otherwise): 1.09
B1: PD-L2-his tag, Q9BQ51 20-220 (ligand, UniProt Q9BQ51 20-220, looked up, not shown: small tags and cut ends)
chain: LFTVTVPKELYIIEHGSNVTLECNFDTGSHVNLGAITASLQKVENDTSPHRERATLLEEQLPLGKASFHIPQVQVRDEGQYQCIIIYGVAWDYKYLTLKVKASYRKINTHILKVPETDEVELTCQATGYPLAEVSWPNVSVPANTSHSRTPEGLYQVTSVLRLKPPPGRNFSCVFWNTHVRELTLASIDLQSQMEPRTHPT
